Data: paper PMC8092281, “Two Distinct Conformations in 34 FliF Subunits Generate Three Different Symmetries within the Flagellar MS-Ring” (mBio, 2021)

Biological target: the molecule itself
Test: cryo-EM structure; single-particle cryoEM of the purified Salmonella MS-FliG ring complex in 25 mM Tris-HCl pH 8.0, 50 mM NaCl, 1 mM EDTA, 0.1% DDM; 8.6 Å (C1) and 6.1 Å (C11) reconstructions

B1: Salmonella FliF (MS-ring of the purified MS-FliG ring complex) (natural protein, UniProt P15928 1-560, looked up)
chain: MSATASTATQPKPLEWLNRLRANPRIPLIVAGSAAVAIVVAMVLWAKTPDYRTLFSNLSDQDGGAIVAQLTQMNIPYRFANGSGAIEVPADKVHELRLRLAQQGLPKGGAVGFELLDQEKFGISQFSEQVNYQRALEGELARTIETLGPVKSARVHLAMPKPSLFVREQKSPSASVTVTLEPGRALDEGQISAVVHLVSSAVAGLPPGNVTLVDQSGHLLTQSNTSGRDLNDAQLKFANDVESRIQRRIEAILSPIVGNGNVHAQVTAQLDFANKEQTEEHYSPNGDASKATLRSRQLNISEQVGAGYPGGVPGALSNQPAPPNEAPIATPPTNQQNAQNTPQTSTSTNSNSAGPRSTQRNETSNYEVDRTIRHTKMNVGDIERLSVAVVVNYKTLADGKPLPLTADQMKQIEDLTREAMGFSDKRGDTLNVVNSPFSAVDNTGGELPFWQQQSFIDQLLAAGRWLLVLVVAWILWRKAVRPQLTRRVEEAKAAQEQAQVRQETEEAVEVRLSKDEQLQQRRANQRLGAEVMSQRIREMSDNDPRVVALVIRQWMSNDHE
notes: FliF, flagellar M-ring protein, Salmonella; 60-kDa protein with two transmembrane helices and a large periplasmic region; also called St-FliF; copies: 34
  stoichiometry N: 34
